Reference: the supplement of paper PMC9732359
± gives the uncertainty stated by the source.

Test: protein stability index of a GFP-peptide fusion (yeast GPS) (PSI 1-4); higher = more stable; sorted into four equal gates, so the index is relative within each strain
How it was run: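 Plasmids isolated from each sorting gate were PCR-amplified and Illumina-sequenced, and barcodes assigned the reads to strains. The gates, four of equal size, were set by GFP/Cherry fluorescence ratio on mid-log cultures in leucine-free medium. These cultures were yeast carrying a pooled library of tiled 17-residue yeast protein peptides fused downstream of GFP on a plasmid that also expresses Cherry. The protein stability index is the sum of every gate's read frequency times its gate number.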

Sequence | protein stability index (doa10∆) | protein stability index (pdr5∆) | protein stability index (san1∆) | protein stability index (ubr1∆)
IVMQLRKCCNHPYLFEG [ISW2] | 2.78 ± 0.087 | 2.53 ± 0.11 | 2.74 ± 0.069 | 2.78 ± 0.11
IVRDLDRPGSKFHKREV [RPL3] | 3.07 ± 0.14 | 3.44 ± 0.28 | 2.92 ± 0.3 | 3.14 ± 0.16
IVSEDHIILDTISECNL [MED1] | 2.87 ± 0.093 | 3.19 ± 0.081 | 3.2 ± 0.077 | 2.83 ± 0.12
IVVATEHNPSAHTASVG [COR1] | 2.7 ± 0.07 | 2.46 ± 0.088 | 2.27 ± 0.06 | 1.77 ± 0.037
IWPAEDALRRGMLAMAS [MED4] | 3.12 ± 0.11 | 3.24 ± 0.099 | 3.05 ± 0.075 | 3.27 ± 0.086
IYAGYDDRYGYQLYTSN [PRE9] | 2.99 ± 0.16 | 2.14 ± 0.25 | 1.86 ± 0.17 | 2.34 ± 0.16
IYDFHKMENLMRLIKRV [YJL039C/NUP192] | 2.58 ± 0.097 | 2.67 ± 0.079 | 2.3 ± 0.062 | 2.57 ± 0.073
IYDKKDHKYVCTFSMEP [SRB8] | 2.85 ± 0.076 | 2.99 ± 0.11 | 2.78 ± 0.06 | 3 ± 0.069
IYEEVRAVLKSFLESVI [HHF1] | 3 ± 0.21 | 3.13 ± 0.15 | 2.26 ± 0.15 | 2.66 ± 0.097
IYFTVPNEFEIQLSTVN [RGR1] | 2.21 ± 0.064 | 2.22 ± 0.058 | 1.88 ± 0.061 | 2.2 ± 0.042
IYGVEWLIEGKLYVDAV [YDL116W/NUP84] |  | 1.2 ± 0.082 |  | 
IYNELSYELIKEECQIE [CSN9] | 2.47 ± 0.08 | 2.66 ± 0.06 | 2.73 ± 0.057 | 3 ± 0.048
IYQTLIALNLDTTVNDC [SNF2] | 2.19 ± 0.035 | 2.53 ± 0.04 | 2.25 ± 0.054 | 2.35 ± 0.033
IYRGVLNDENSDDYDNE [SMC1] | 3.19 ± 0.24 | 3.41 ± 0.15 | 3.21 ± 0.24 | 3.42 ± 0.14
IYYDSYIHLAYSRSVDK [SSN2] | 2.71 ± 0.13 | 2.78 ± 0.14 | 2.89 ± 0.11 | 3.26 ± 0.088
KAASSTRIFQALPRKLR [POP1] | 2.64 ± 0.1 | 3.36 ± 0.15 | 2.76 ± 0.12 | 2.77 ± 0.086
KAEMPPEHLRKIINTHS [PRP8] | 1.94 ± 0.089 | 1.74 ± 0.058 | 1.82 ± 0.12 | 1.89 ± 0.061
KAFKICEAAVEISKKDF [SIR3] | 3.19 ± 0.13 | 2.88 ± 0.082 | 2.79 ± 0.14 | 2.85 ± 0.12
KAIELLEKALQGATNEG [SRP72] |  | 1.14 ± 0.18 |  | 1.18 ± 0.22
KAKVEEMNNIIAASRRH [RPL36A] | 2.85 ± 0.084 | 3.25 ± 0.075 | 3.19 ± 0.068 | 3.13 ± 0.072
KALDRHEFFIANHDDQD [SRP68] | 3.1 ± 0.058 | 2.98 ± 0.091 | 2.89 ± 0.057 | 3.17 ± 0.07
KALKTNINFASGVKNDI [CDC53] | 3.09 ± 0.089 | 3.22 ± 0.068 | 2.83 ± 0.095 | 3.04 ± 0.074
KATLELLKLIEPYVAYG [RPL7A] | 2.28 ± 0.078 | 3.24 ± 0.083 | 3.3 ± 0.034 | 2.79 ± 0.047
KCPGCLNITTVFSHAQT [RPS27A] | 2.76 ± 0.046 | 2.76 ± 0.051 | 2.9 ± 0.045 | 2.99 ± 0.043
KCPLLVEVDITLSPNVT [GRR1] | 1.8 ± 0.058 | 1.83 ± 0.065 | 1.76 ± 0.088 | 2.51 ± 0.071
KCTAEGIKVSLLGIFDD [RPC25] | 2.19 ± 0.077 | 1.69 ± 0.088 | 2.27 ± 0.099 | 2.04 ± 0.061

Sequence | protein stability index (doa10∆) | protein stability index (pdr5∆) | protein stability index (san1∆) | protein stability index (ubr1∆)
KDLFELERYYKEQADIY [ARP7] | 3.11 ± 0.09 | 3.34 ± 0.083 | 3.46 ± 0.12 | 3.41 ± 0.067
KDLQWLEFARITPMNDD [SIN4] | 2.94 ± 0.1 | 3.19 ± 0.088 | 3.14 ± 0.055 | 3.33 ± 0.097
KDQYVPEVSALDLSRSN [RPS17A] | 2.16 ± 0.14 | 2.2 ± 0.1 | 2.02 ± 0.12 | 2.2 ± 0.065
KDTPFTIYDGEAVAKYI [PRE5] | 2.69 ± 0.073 | 2.97 ± 0.062 | 3.13 ± 0.089 | 3.12 ± 0.05
KEASQEDDNNNVEKPSS [YLR335W/NUP2] | 3.11 ± 0.088 | 3.22 ± 0.071 | 3.06 ± 0.053 | 3.18 ± 0.066
KEDSTIQDSNGDVKNME [SWI3] | 3.09 ± 0.11 | 3.38 ± 0.087 | 2.71 ± 0.093 | 3.17 ± 0.058
KEEISDQKPIEHIKEGS [SWI3] | 2.96 ± 0.053 | 2.82 ± 0.051 | 2.88 ± 0.063 | 3 ± 0.04
KEHAPYTDELEEDVYLD [FAS2] |  | 3.48 ± 0.27 |  | 3.04 ± 0.26
KEHEPCIIFMDEVDAIG [RPT4] | 1.85 ± 0.049 | 1.92 ± 0.059 | 1.79 ± 0.12 | 1.98 ± 0.072
KEIKTNEYVIKTPVFTT [YMR129W/POM152] | 2.1 ± 0.072 | 1.98 ± 0.056 | 1.88 ± 0.084 | 1.94 ± 0.042
KEISARRYKLLTATPNS [POP1] | 2.1 ± 0.051 | 2.45 ± 0.061 | 2.32 ± 0.06 | 2.5 ± 0.051
KEKAPTIIFIDELDAIG [RPT5] | 2.57 ± 0.068 | 2.35 ± 0.041 | 1.85 ± 0.11 | 2.4 ± 0.052
KEKIEKLSKSATESIKN [SMC1] | 3.28 ± 0.12 | 2.99 ± 0.21 | 2.97 ± 0.079 | 3.07 ± 0.072
KEKLTVQDCRYSLASVT [POP1] | 2.69 ± 0.039 | 2.62 ± 0.043 | 2.35 ± 0.043 | 2.46 ± 0.035
KEPVALIETVRQMKDVN [RPN2] | 3.36 ± 0.059 | 3.41 ± 0.067 | 3.15 ± 0.051 | 3.31 ± 0.041
KERSIVVGRTTRSNPPF [REC8] | 2.7 ± 0.055 | 2.7 ± 0.057 | 2.57 ± 0.081 | 2.65 ± 0.065
KESIVLPTVGFDFIKDN [YOR098C/NUP1] | 2.39 ± 0.14 | 2.65 ± 0.11 | 3.05 ± 0.16 | 2.83 ± 0.07
KESPWKILMYQYNIPPE [RRP6] | 2.23 ± 0.07 | 2.01 ± 0.066 | 1.42 ± 0.11 | 1.57 ± 0.055
KETAPVIDTLAAGYGKI [RPL28] | 1.96 ± 0.088 | 2.71 ± 0.12 | 2.13 ± 0.21 | 2.53 ± 0.083
KETVEIGIVDYEAGASH [FAS1] |  | 2.92 ± 0.19 |  | 3.06 ± 0.14
KETWLHELSSSHTSLVK [SRB8] | 1.81 ± 0.05 | 2.04 ± 0.056 | 1.87 ± 0.083 | 1.8 ± 0.055
KFLQVMQKHGYIGEFEY [RPS22A] | 2.68 ± 0.063 | 2.27 ± 0.059 | 2.11 ± 0.092 | 2.6 ± 0.054
KFNAAPEENATEGPSDK [SNF12] | 3.1 ± 0.16 | 3.58 ± 0.14 | 3.26 ± 0.081 | 3.26 ± 0.098
KFNELVKLMKNITDYET [BRR2] | 1.11 ± 0.042 | 1.21 ± 0.06 | 1.21 ± 0.14 | 1.3 ± 0.056
KFQETLLRQKIEQCKHP [ISW2] | 1.34 ± 0.068 | 1.47 ± 0.068 | 1.24 ± 0.13 | 1.21 ± 0.063
KGAATGKGRQSAKAELE [PRE10] | 1.24 ± 0.088 | 1.38 ± 0.079 | 1.45 ± 0.29 | 1.22 ± 0.064
